# Like-named read-outs stand apart in the source and are kept apart here.
# T1: CLEC4G expressed on cells (human, UniProt Q6UXB4 1-293)
# T1 construct: Clone of the Origene human cDNA library; also called C type lectin superfamily 4 member G
# T1 sequence: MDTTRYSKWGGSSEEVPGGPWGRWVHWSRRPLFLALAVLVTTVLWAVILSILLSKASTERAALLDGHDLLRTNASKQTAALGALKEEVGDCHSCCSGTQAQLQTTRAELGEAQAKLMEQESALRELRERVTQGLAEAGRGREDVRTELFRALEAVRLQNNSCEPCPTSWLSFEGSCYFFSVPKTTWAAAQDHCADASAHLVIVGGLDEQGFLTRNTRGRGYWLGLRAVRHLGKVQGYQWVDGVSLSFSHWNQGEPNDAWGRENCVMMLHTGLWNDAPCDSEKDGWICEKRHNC
# T2: mouse CD99 expressed on 293T cells (mouse, UniProt Q8VCN6 29-175, sialylated O-glycans at Thr-45 and Thr-50 (cited as relevant for PILRα recognition))
# T2 construct: whole, on cells; also called mCD99; mCD99 transfectants
# T2 sequence (looked up): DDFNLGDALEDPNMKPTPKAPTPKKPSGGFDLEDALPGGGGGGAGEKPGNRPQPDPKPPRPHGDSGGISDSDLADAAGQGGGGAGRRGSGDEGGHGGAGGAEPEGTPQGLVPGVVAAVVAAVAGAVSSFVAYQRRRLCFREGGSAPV
# T3: human NPDC1 expressed on cells (human, UniProt Q9NQX5 35-325)
# T3 construct: also called hNPDC1; hNPCD1
# T3 sequence: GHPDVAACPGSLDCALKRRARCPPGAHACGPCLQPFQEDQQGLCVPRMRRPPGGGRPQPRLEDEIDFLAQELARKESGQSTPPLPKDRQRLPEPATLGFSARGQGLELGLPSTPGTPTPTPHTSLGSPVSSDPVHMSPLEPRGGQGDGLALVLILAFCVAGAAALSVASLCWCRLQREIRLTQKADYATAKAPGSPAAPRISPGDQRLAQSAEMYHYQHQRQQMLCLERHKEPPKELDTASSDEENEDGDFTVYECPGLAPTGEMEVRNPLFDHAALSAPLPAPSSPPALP
# T4: BR3 expressed on cells (human, UniProt Q96RJ3 1-184)
# T4 construct: Clone of the Origene human cDNA library
# T4 sequence: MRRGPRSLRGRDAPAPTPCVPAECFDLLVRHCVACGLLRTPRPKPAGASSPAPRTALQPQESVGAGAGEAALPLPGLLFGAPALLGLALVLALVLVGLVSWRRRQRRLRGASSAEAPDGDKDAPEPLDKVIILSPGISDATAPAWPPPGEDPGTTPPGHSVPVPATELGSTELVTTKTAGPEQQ
# T5: IL-2Ra expressed on cells (human, UniProt P01589 22-272)
# T5 construct: Clone of the Origene human cDNA library; also called Interleukin 2 receptor alpha
# T5 sequence: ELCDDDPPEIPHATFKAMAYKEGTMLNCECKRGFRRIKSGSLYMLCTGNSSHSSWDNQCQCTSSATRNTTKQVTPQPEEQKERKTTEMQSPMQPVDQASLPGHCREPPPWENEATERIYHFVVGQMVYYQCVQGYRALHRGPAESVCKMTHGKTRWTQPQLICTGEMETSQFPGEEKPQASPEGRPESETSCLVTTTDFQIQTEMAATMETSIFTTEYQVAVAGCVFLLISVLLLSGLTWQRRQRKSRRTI
# T6: MAG expressed on cells (human, UniProt P20916 20-626)
# T6 construct: Clone of the Origene human cDNA library; also called Myelin associated glycoprotein; SIGLEC4A
# T6 sequence: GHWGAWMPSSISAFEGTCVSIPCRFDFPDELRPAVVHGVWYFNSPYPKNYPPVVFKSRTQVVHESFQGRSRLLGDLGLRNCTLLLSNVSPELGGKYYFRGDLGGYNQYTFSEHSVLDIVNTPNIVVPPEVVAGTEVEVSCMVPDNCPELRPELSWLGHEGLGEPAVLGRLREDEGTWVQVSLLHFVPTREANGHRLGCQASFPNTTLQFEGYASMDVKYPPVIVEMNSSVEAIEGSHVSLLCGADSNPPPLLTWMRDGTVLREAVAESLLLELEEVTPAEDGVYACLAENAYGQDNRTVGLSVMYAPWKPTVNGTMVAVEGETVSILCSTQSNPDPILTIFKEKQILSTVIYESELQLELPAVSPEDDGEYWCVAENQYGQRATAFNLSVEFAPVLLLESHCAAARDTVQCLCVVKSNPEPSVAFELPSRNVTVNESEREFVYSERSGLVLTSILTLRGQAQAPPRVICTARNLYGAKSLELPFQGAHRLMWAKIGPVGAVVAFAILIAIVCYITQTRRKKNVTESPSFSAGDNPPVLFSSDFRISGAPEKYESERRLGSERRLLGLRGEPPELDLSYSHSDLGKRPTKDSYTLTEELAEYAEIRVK
# T7: mCD99-Fc (mouse, UniProt Q8VCN6 29-137, limits assumed, three O-glycans NeuAc1-2Hex1HexNAc1)
# T7 construct: also called mouse CD99-Fc; mCD99 (SPR analyte); not shown: Fc
# T7 sequence (looked up): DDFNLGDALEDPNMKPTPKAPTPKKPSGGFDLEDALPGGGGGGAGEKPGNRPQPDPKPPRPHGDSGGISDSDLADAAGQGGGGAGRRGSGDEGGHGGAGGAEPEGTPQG
# T8: FceRII expressed on cells (human, UniProt P06734 1-321)
# T8 construct: Clone of the Origene human cDNA library; also called FcRII
# T8 sequence: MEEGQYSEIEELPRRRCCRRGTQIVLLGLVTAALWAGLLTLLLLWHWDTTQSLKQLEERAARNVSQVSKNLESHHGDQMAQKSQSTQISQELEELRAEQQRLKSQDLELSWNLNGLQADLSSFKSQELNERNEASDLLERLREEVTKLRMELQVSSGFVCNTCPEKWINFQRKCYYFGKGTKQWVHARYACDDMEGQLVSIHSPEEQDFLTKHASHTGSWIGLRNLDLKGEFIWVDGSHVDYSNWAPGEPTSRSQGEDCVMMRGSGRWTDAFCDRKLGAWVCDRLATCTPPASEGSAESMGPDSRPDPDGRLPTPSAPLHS
# Experiments:
# [1] = target: T1, CLEC4G expressed on cells; experiment: flow cytometry, transfected 293T cells
# [2] = target: T9, LRRTM4 expressed on cells (human, UniProt Q86VH4 31-590); experiment: flow cytometry, transfected 293T cells
# T9 construct: Clone of the Origene human cDNA library; also called Leucine rich repeat transmembrane neuronal 4
# [3] = target: T2, mouse CD99 expressed on 293T cells; experiment: flow cytometry, transfected 293T cells
# [4] = target: T3, human NPDC1 expressed on cells; experiment: flow cytometry, transfected 293T cells
# [5] = target: T4, BR3 expressed on cells; experiment: flow cytometry, transfected 293T cells
# [6] = target: T5, IL-2Ra expressed on cells; experiment: flow cytometry, transfected 293T cells
# [7] = target: T10, PSS8 expressed on cells (human, UniProt Q16651 30-343); experiment: flow cytometry, transfected 293T cells
# T10 construct: Clone of the Origene human cDNA library; also called Protease serine 8; prostasin
# [8] = target: T6, MAG expressed on cells; experiment: flow cytometry, transfected 293T cells, 2 µg/ml
# [9] = target: T9, LRRTM4 expressed on cells; experiment: flow cytometry, transfected 293T cells, 2 µg/ml
# [10] = target: T6, MAG expressed on cells; experiment: flow cytometry, transfected 293T cells, 50 µg/ml
# [11] = target: T4, BR3 expressed on cells; experiment: flow cytometry, transfected 293T cells, 2 µg/ml
# [12] = target: T10, PSS8 expressed on cells; experiment: flow cytometry, transfected 293T cells, 2 µg/ml
# [13] = target: T7, mCD99-Fc; experiment: SPR, hPILRα R126A-Fc immobilized, response difference
# [14] = target: T11, hCOLEC12-his (human, UniProt Q5KU26 59-742, sialylated O-glycans and N-glycans); experiment: as above
# T11 construct: Whole entry named; also called human COLEC12-his; hCOLEC12 (SPR); not shown: his tag
# [15] = target: T12, human COLEC12 expressed on cells (human, UniProt Q5KU26 1-742); experiment: flow cytometry, transfected 293T cells, ligand-expressing cells gated
# T12 construct: also called hCOLEC12; C-terminal his tagged hCOLEC12
# [16] = target: T13, HSV1 glycoprotein B expressed on 293T cells (herpes simplex virus type 1, UniProt P10211 31-904); experiment: as above
# T13 construct: whole, on cells; also called HSV-1 gB; HSV1 gB
# [17] = target: T12, human COLEC12 expressed on cells; experiment: flow cytometry, transfected 293T cells
# [18] = target: T6, MAG expressed on cells; experiment: flow cytometry, transfected 293T cells
# [19] = target: T9, LRRTM4 expressed on cells; experiment: flow cytometry, transfected 293T cells; remark: listed apart in the source
# [20] = target: T5, IL-2Ra expressed on cells; experiment: flow cytometry, transfected 293T cells; remark: listed apart in the source
# [21] = target: T10, PSS8 expressed on cells; experiment: flow cytometry, transfected 293T cells; remark: listed apart in the source
# [22] = target: T1, CLEC4G expressed on cells; experiment: flow cytometry, transfected 293T cells, 50 µg/ml
# [23] = target: T8, FceRII expressed on cells; experiment: flow cytometry, transfected 293T cells, 50 µg/ml
# [24] = target: T6, MAG expressed on cells; experiment: flow cytometry, transfected 293T cells, 50 µg/ml; remark: listed apart in the source
# [25] = target: T8, FceRII expressed on cells; experiment: flow cytometry, transfected 293T cells, 50 µg/ml; remark: listed apart in the source
# [26] = target: T4, BR3 expressed on cells; experiment: flow cytometry, transfected 293T cells, 50 µg/ml
# T10 sequence (Q16651 30-343 limits assumed): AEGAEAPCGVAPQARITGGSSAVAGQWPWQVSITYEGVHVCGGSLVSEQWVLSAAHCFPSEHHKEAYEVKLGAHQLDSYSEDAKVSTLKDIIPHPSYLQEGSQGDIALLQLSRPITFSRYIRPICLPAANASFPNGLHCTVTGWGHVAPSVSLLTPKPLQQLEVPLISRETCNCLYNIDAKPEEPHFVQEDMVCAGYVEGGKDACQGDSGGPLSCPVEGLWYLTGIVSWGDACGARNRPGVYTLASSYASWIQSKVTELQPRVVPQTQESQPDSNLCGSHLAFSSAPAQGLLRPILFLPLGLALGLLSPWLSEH
# T9 sequence (Q86VH4 31-590 limits assumed): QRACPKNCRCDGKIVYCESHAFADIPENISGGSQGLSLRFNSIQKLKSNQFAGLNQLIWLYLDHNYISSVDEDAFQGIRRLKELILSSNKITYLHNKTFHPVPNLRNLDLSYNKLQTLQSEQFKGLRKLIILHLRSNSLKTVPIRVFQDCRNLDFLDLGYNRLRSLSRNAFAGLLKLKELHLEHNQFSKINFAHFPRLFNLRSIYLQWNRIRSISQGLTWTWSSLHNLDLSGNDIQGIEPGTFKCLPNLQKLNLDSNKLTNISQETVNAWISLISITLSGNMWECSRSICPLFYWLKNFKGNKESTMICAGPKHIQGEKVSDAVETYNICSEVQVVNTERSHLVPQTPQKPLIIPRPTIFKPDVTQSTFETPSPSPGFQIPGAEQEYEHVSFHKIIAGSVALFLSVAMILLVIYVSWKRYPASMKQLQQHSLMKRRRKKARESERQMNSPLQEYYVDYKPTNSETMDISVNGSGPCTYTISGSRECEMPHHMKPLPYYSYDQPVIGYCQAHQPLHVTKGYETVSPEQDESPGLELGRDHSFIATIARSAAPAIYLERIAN
# T12 sequence (Q5KU26 whole entry S522P/G606S): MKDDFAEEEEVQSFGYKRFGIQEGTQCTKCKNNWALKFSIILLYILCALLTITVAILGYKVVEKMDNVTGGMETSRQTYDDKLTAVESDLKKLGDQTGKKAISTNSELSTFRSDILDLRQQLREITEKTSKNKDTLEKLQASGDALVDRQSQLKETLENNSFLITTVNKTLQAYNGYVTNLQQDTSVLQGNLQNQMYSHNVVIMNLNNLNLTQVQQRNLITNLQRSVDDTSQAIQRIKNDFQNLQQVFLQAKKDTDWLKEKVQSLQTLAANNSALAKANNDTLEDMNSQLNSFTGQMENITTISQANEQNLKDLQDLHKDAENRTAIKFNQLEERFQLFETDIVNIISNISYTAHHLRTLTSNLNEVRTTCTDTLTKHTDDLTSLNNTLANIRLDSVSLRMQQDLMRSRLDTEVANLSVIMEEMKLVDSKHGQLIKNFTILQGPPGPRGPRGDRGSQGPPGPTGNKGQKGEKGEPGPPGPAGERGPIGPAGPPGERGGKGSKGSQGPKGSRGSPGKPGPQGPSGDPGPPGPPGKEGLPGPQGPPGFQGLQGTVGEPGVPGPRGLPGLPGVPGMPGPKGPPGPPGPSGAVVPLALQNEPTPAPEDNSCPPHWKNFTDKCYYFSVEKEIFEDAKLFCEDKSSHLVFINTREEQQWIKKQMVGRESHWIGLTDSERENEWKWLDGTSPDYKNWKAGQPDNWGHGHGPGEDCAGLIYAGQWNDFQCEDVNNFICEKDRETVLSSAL
# T11 sequence (Q5KU26 59-742 S522P/G606S limits assumed): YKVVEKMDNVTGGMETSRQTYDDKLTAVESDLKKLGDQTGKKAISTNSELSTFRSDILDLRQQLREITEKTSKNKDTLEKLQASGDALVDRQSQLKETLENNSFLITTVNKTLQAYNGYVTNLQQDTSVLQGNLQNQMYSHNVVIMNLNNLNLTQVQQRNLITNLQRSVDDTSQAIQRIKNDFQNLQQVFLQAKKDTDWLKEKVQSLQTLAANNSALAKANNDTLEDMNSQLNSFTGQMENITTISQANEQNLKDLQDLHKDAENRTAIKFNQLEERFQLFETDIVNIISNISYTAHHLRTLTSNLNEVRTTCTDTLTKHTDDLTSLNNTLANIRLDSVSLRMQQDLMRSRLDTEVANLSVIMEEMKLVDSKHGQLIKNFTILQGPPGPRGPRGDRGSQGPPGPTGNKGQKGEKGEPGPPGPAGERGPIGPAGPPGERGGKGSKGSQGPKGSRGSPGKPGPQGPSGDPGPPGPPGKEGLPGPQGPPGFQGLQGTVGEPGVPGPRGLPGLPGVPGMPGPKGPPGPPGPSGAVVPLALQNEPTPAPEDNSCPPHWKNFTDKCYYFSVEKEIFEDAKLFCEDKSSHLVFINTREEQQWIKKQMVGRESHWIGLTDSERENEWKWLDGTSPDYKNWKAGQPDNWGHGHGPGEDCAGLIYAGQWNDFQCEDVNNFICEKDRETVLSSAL
binder,measurement,setting,value
"hPILRαR126A-Fc (Fc fusion, Arg mutant of hPILRα-Fc; also called hPILRα R126-Fc; mutant hPILRα; not shown: Fc of mouse IgG2a (PILRα-mIgG2a, called PILRα-Fc)) QPSGSTGSGPSYLYGVTQPKHLSASMGGSVEIPFSFYYPWELATAPDVRISWRRGHFHRQSFYSTRPPSIHKDYVNRLFLNWTEGQKSGFLRISNLQKQDQSVYFCAVELDTRSSGRQQWQSIEGTKLSITQAVTTTTQRPSSMTTTWRLSSTTTTTGLRVTQGKRRSDSWHISLETA",binding result,[1],no binding (tested: 50 µg/ml)
same,binding result,[2],no binding (tested: 50 µg/ml)
same,binding result,[3],no binding (tested: 50 µg/ml)
same,binding result,[4],no binding (tested: 50 µg/ml)
same,binding result,[5],no binding (tested: 50 µg/ml)
same,binding result,[6],no binding (tested: 50 µg/ml)
same,binding result,[7],no binding (tested: 50 µg/ml)
same,% cells in lower right quadrant,[8],0.17%
same,% cells in lower right quadrant,[9],0.11%
same,% cells in lower right quadrant,[10],12.5%
same,% cells in lower right quadrant,[11],0.47%
same,% cells in lower right quadrant,[12],0.012%
same,binding result,[13],no binding (tested: 1 µM)
same,binding result,[14],no binding (tested: 1 µM)
same,binding result,[15],no binding
same,binding result,[16],no binding
"mPILRβ (receptor, also called Mouse PILR-beta) not shown",binding result,[17],no binding (tested: 50 µg/ml)
same,binding result,[18],no binding (tested: 50 µg/ml)
same,binding result,[19],no binding (tested: 50 µg/ml)
same,binding result,[20],no binding (tested: 50 µg/ml)
same,binding result,[21],no binding (tested: 50 µg/ml)
same,% cells in lower right quadrant,[22],27.4%
same,% cells in lower right quadrant,[23],3.98%
same,% cells in lower right quadrant,[24],0.083%
same,% cells in lower right quadrant,[25],3.98%
same,% cells in lower right quadrant,[26],1.85%

# Reference: patent US20150203575A1 (Genentech, published 2015)
